Experimental data as given in paper PMC3792054, “A Remote Palm Domain Residue of RB69 DNA Polymerase Is Critical for Enzyme Activity and Influences the Conformation of the Active Site”.
Where a chain is given by its changes, count along the chain named.

T1: RB69 PolD714A Exo- (bacteriophage RB69, UniProt Q38087 1-903, D222A;D327A;D714A)
T1 sequence: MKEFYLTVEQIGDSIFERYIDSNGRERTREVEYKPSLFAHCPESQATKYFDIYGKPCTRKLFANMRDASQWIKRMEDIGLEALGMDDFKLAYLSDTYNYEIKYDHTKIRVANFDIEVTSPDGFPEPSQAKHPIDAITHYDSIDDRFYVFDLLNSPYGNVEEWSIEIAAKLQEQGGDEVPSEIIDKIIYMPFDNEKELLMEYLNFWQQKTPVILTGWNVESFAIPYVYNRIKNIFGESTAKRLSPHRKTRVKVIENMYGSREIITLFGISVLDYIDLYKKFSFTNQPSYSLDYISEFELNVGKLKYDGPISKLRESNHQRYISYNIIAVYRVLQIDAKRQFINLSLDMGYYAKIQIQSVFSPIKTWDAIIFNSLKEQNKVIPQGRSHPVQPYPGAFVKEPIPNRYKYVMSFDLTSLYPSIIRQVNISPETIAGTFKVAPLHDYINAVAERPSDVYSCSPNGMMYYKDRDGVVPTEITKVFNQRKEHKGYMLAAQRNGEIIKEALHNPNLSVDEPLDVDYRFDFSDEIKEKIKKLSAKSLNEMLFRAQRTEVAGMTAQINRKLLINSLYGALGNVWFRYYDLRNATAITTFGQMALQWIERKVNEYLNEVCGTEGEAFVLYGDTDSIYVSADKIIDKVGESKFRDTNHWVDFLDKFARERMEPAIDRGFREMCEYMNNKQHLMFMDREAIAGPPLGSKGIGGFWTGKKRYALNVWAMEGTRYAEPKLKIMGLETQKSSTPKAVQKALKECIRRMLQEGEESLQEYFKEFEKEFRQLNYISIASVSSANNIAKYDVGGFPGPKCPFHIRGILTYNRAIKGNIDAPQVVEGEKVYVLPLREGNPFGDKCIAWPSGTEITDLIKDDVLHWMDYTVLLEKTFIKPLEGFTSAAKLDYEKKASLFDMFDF

T2: RB69 DNA polymerase Pol+Exo+ (wild type gp43) (bacteriophage RB69, UniProt Q38087 1-903)
T2 sequence: T1 sequence with A222D, A327D, A714D

T3: RB69 PolD714A Exo+ (bacteriophage RB69, UniProt Q38087 1-903, D714A)
T3 sequence: T1 sequence with A222D, A327D

T4: RB69 Pol+Exo- (bacteriophage RB69, UniProt Q38087 1-903, D222A;D327A)
T4 sequence: T1 sequence with A714D

T5: RB69 PolY567A/D714A Exo- (bacteriophage RB69, UniProt Q38087 1-903, D222A;D327A;Y567A;D714A)
T5 sequence: T1 sequence with Y567A

B1: 20*/26-mer primer-template (dsDNA)
DNA 1: AGCTACGCGGCTGTCATAAG
DNA 2: TTGCGTCTTATGACAGCCGCGTAGCT
B2: 13/18-mer primer-template (crystal) (dsDNA)
DNA 1: GCGGACTGCTTAC
DNA 2: TCACGTAAGCAGTCCGCG

Key:
[1] = biological target: T1, RB69 PolD714A Exo-; assay: EMSA; almost same affinity as Pol+Exo-; value in Table 2/Figure 2E not in material; EMSA: 50 nM DNA, 7.5-500 nM Exo+ or 2.5-400 nM Exo- polymerase, native 6% PAGE; buffer, pH and temperature as in ref. 16; details: protein: recombinant; label: 5'-32P on primer (20-mer); 5' overhang 6 nt on template; other end blunt
[2] = biological target: T2, RB69 DNA polymerase Pol+Exo+ (wild type …); assay: EMSA; apparent Kd; EMSA: 50 nM DNA, 7.5-500 nM Exo+ or 2.5-400 nM Exo- polymerase, native 6% PAGE; buffer, pH and temperature as in ref. 16; details: protein: recombinant; label: 5'-32P on primer (20-mer); 5' overhang 6 nt on template; other end blunt
[3] = biological target: T3, RB69 PolD714A Exo+; assay: as above; details: protein: recombinant; label: 5'-32P on primer (20-mer); 5' overhang 6 nt on template; other end blunt
[4] = biological target: T4, RB69 Pol+Exo-; assay: EMSA; binds tighter than Pol+Exo+; value in Table 2/Figure 2E not in material; EMSA: 50 nM DNA, 7.5-500 nM Exo+ or 2.5-400 nM Exo- polymerase, native 6% PAGE; buffer, pH and temperature as in ref. 16; details: protein: recombinant; label: 5'-32P on primer (20-mer); 5' overhang 6 nt on template; other end blunt
[5] = biological target: T5, RB69 PolY567A/D714A Exo-; assay: X-ray crystallography; dGpnpp, Ca2+, Na+; ternary complex I, 2.30 A; details: protein: recombinant; template 5' overhang 4 nt and 3' overhang 1 nt

Row | Binder | binding result [1] | Kd [2] [µM] | Kd [3] [µM] | binding result [4] | binding result [5]
1 | B1 | binds | 0.176 | 0.141 | binds | –
2 | B2 | – | – | – | – | binds
